This is an account of results in patent US20130177979A1 (UNIVERSITY OF CENTRAL FLORIDA RESEARCH FOUNDATION, published 2013).

In assay [1] the target is T1, PpYLKTK (Stat3-derived pTyr705 peptide).
T1 construct: SPR analyte; also called pY705Stat3; Stat3 pY705 peptide
T1 peptide: P[pY]LKTK
Put plainly: SPR (SensiQ), His-tagged protein immobilised on HisCap chip, pTyr peptide as analyte.

The target in assay [2] is T2, GpYIKTE (Stat1 pY701 peptide).
T2 construct: SPR analyte; also called pY701Stat1; Stat1 phosphopeptide
T2 peptide: G[pY]IKTE
The description is as above.

For assay [3], the target named is T3, GpYVKPQ (pTyr peptide of Stat5).
T3 construct: SPR analyte; also called pY694Stat5; pY695Stat5
T3 peptide: G[pY]VKPQ
The assay is described as above.

Assay [4] addresses T4, PEpYINQS (pY1068 peptide of EGFR).
T4 construct: SPR analyte; also called pY1068EGFR
T4 peptide: PE[pY]INQS
The assay is described as above.

Assay [5] addresses T3, GpYVKPQ (pTyr peptide of Stat5). Briefly: SPR (SensiQ); His-tagged full-length Stat3 immobilised on a HisCap sensor chip, GpYVKPQ passed over as analyte; sensorgram shown at 100 µM.
Assay [6] has as its target T5, human epidermal growth factor receptor (EGFR) on cells (human, UniProt P00533 25-1210).
T5 construct: whole, on cells; SPI is said to associate with the pTyr motifs of the receptor's cytoplasmic tail inside cells; also called hEGFR; EGF receptor
Put plainly: Fluorescence and confocal microscopy, fluorescently-labeled SPI and anti-EGFR immunostaining in MDA-MB-231 and NIH3T3/hEGFR cells. From the text:
Fluorescence imaging and immunofluorescence with laser-scanning confocal microscopy.

Where no end group is shown, it is not given here. [ ]: non-standard residue; d: D form. pY = N[C@@H](Cc1ccc(OP(=O)(O)O)cc1)C(=O)O

B1: His-tagged Stat3 (full-length Stat3) (other)
chain: MAQWNQLQQLDTRYLKQLHQLYSDTFPMELRQFLAPWIESQDWAYAASKESHATLVFHNLLGEIDQQYSRFLQESNVLYQHNLRRIKQFLQSRYLEKPMEIARIVARCLWEESRLLQTAATAAQQGGQANHPTAAVVTEKQQMLEQHLQDVRKRVQDLEQKMKVVENLQDDFDFNYKTLKSQGDMQDLNGNNQSVTRQKMQQLEQMLTALDQMRRSIVSELAGLLSAMEYVQKTLTDEELADWKRRQQIACIGGPPNICLDRLENWITSLAESQLQTRQQIKKLEELQQKVSYKGDPIVQHRPMLEERIVELFRNLMKSAFVVERQPCMPMHPDRPLVIKTGVQFTTKVRLLVKFPELNYQLKIKVCIDKDSGDVAALRGSRKFNILGTNTKVMNMEESNNGSLSAEFKHLTLREQRCGNGGRANCDASLIVTEELHLITFETEVYHQGLKIDLETHSLPVVVISNICQMPNAWASILWYNMLTNNPKNVNFFTKPPIGTWDQVAEVLSWQFSSTTKRGLSIEQLTTLAEKLLGPGVNYSGCQITWAKFCKENMAGKGFSFWVWLDNIIDLVKKYILALWNEGYIMGFISKERERAILSTKPPGTFLLRFSESSKEGGVTFTWVEKDISGKTQIQSVEPYTKQQLNNMSFAEIIMGYKIMDATNILVSPLVYLYPDIPKEEAFGKYCRPESQEHPEADPGSAAPYLKTKFICVTPTTCSNTIDLPMSPRTLDSLMQFGNNGEGAEPSAGGQFESLTFDMDLTSECATSPM
For B1, the Kd (in general, the constant that tells how readily two partners part at equilibrium) turned out to be 0.9 µM in assay [1]; 4.4 µM in assay [2]; 1200 µM in assay [3]; 0.6 µM in assay [4]; 1140 µM in assay [5].

B2: 5-carboxyfluorescein-labeled SPI (peptide)
peptide: FISKERERAILSTKPPGTFLLRFSESSK
modifications: 5-carboxyfluorescein attached to the amino-terminus
notes: Used for cell uptake and colocalisation microscopy; also called fluorescently-labeled SPI
In the case of B2, the binding result in assay [6] was “binds”.
